Data from patent publication US20220025056A1 (INNATE PHARMA, published 2022).
Where two headings read alike, the source gives them in different places.

How the values were obtained:
[1] = biological target: T1, human ILT2 on primary NK cells (human, UniProt Q8NHL6 24-650); test: cell-based or functional assay
[2] = biological target: T2, human ILT1 (LILRA2) on CHO cells (human, UniProt Q8N149 24-475); test: flow cytometry, CHO transfectants
T2 construct: also called CHO ILT1 cell line

[3] = biological target: T3, human ILT3 (LILRB4) on CHO cells (human, UniProt Q8NHJ6 24-443); test: flow cytometry, CHO transfectants
T3 construct: also called CHO ILT3 cell line

[4] = biological target: T4, human ILT4 (LILRB2) on CHO cells (human, UniProt Q8N423 23-597); test: flow cytometry, CHO transfectants
T4 construct: also called CHO ILT4 cell line

[5] = biological target: T5, human ILT5 (LILRB3) on CHO cells (human, UniProt O75022 24-626); test: flow cytometry, CHO transfectants
T5 construct: also called CHO ILT5 cell line

[6] = biological target: T6, human ILT6 (LILRA3) on CHO cells (human, UniProt Q8N6C8 24-434); test: flow cytometry, CHO transfectants
T6 construct: also called CHO ILT6 cell line; human ILT-6 polypeptide

[7] = biological target: T7, human ILT7 (LILRA4) on CHO cells (human, UniProt P59901 28-494); test: flow cytometry, CHO transfectants
T7 construct: also called CHO ILT7 cell line

[8] = biological target: T8, human ILT8 (LILRA6) on CHO cells (human, UniProt Q6PI73 24-477); test: flow cytometry, CHO transfectants
T8 construct: also called CHO ILT8 cell line

[9] = biological target: T9, human ILT2 (LILRB1) expressed at the surface of transfected cells (human, UniProt Q8NHL6 24-650); test: flow cytometry, CHO-ILT2 cells
T9 construct: also called CHO-ILT2; CHO ILT2 cell line
Description: Cells were incubated with various concentrations of unlabeled anti-ILT2 antibodies from 30 μg/ml to 5×10-⁴ μg/ml, for 30 minutes at 4° C. After washes with staining buffer, cells were incubated for 30 min at 4° C. with Goat anti-human H+L AF488 secondary antibody (Jackson Immunoresearch #109-546-088) or Goat anti-mouse H+L AF488 secondary antibody for commercially available antibodies (Jackson Immuoresearch #115-545-146). Fluorescence was measured on an Accury C6 flow cytometer equipped with an HTFC plate loader.

[10] = biological target: T1, human ILT2 on primary NK cells; test: flow cytometry, primary NK cells
[11] = biological target: T10, anchored ILT2 D2 domain protein (human); test: flow cytometry, CHO cells with anchored ILT2 domain proteins
T10 construct: on CHO cells; the entry includes leader remnant, V5 tag and CD24 GPI anchor signal

[12] = biological target: T11, anchored ILT2 D2-D3 domain protein (human, UniProt Q8NHL6 122-321); test: as above
T11 construct: on CHO cells; the entry includes leader remnant, V5 tag and CD24 GPI anchor signal

[13] = biological target: T12, anchored ILT2 D3-D4 domain protein (human, UniProt Q8NHL6 223-650); test: as above
T12 construct: on CHO cells; the entry includes leader remnant, V5 tag, and the ILT2 transmembrane and cytoplasmic parts

[14] = biological target: T13, anchored ILT2 D2-D3-D4 domain protein (human, UniProt Q8NHL6 122-650); test: as above
T13 construct: on CHO cells; the entry includes leader remnant, V5 tag, and the ILT2 transmembrane and cytoplasmic parts

[15] = biological target: T14, ILT-2_6xHis recombinant protein (human, UniProt Q8NHL6 24-458); test: SPR, antibody captured on Protein-A, soluble ILT2 analyte
T14 construct: monomers purified by SEC; also called recombinant 6xHIS tagged ILT2; recombinant human ILT2 proteins
Description: (§1) Measurements were performed on a Biacore T200 apparatus (Biacore GE Healthcare) at 25° C. In all Biacore experiments HBS-EP+(Biacore GE Healthcare) and NaOH 10 mM served as running buffer and regeneration buffer respectively. Sensorgrams were analyzed with Biacore T100 Evaluation software. Protein-A was purchased from (GE Healthcare). Human ILT2 recombinant proteins were cloned, produced and purified at Innate Pharma. Protein-A proteins were immobilized covalently to carboxyl groups in the dextran layer on a Sensor Chip CM5. The chip surface was activated with EDC/NHS (N-ethyl-N′-(3-dimethylaminopropyl) carbodiimidehydrochloride and N-hydroxysuccinimide (Biacore GE Healthcare)). Protein-A was diluted to 10 μg/ml in coupling buffer (10 mM acetate, pH 5.6) and injected until the appropriate immobilization level was reached (i.e. 600 RU). Deactivation of the remaining activated groups was performed using 100 mM ethanolamine pH 8 (Biacore GE Healthcare). […] For blank subtraction, cycles were performed again replacing ILT2 proteins with running buffer. The monovalent affinity analysis was conducted following a regular Capture-Kinetic protocol as recommended by the manufacturer (Biacore GE Healthcare kinetic wizard). Seven serial dilutions of human ILT2 proteins, ranging from 1.95 nM to 250 nM were sequentially injected over the captured antibodies and allowed to dissociate for 10 min before regeneration. The entire sensorgram sets were fitted using the 1:1 kinetic binding model or two state reaction model, as a function of the profile of the curves.

ILT2 mutant 1 = biological target: T15, ILT2 mutant 1 (human, UniProt Q8NHL6 24-650); test: flow cytometry titration on HEK293T cells transfected with ILT2 mutant 1
T15 construct: transfected in HEK293T cells; also called M1

ILT2 mutant 2 = biological target: T16, ILT2 mutant 2 (human, UniProt Q8NHL6 24-650); test: flow cytometry titration on HEK293T cells transfected with ILT2 mutant 2
T16 construct: transfected in HEK293T cells; also called M2

[16] = biological target: T9, human ILT2 (LILRB1) expressed at the …; test: flow cytometry titration on HEK293T cells transfected with wild-type ILT2
[17] = biological target: T17, anchored ILT2 D4 domain protein (human, UniProt Q8NHL6 322-650); test: flow cytometry on CHO cells expressing the anchored ILT2 D4 domain protein (SEQ ID NO: 49); stacked histograms, axis without numbers
T17 construct: on CHO cells; the entry includes leader remnant, V5 tag, and the ILT2 transmembrane and cytoplasmic parts

[18] = biological target: T18, anchored ILT2 D3 domain protein (human); test: flow cytometry on CHO cells expressing the anchored ILT2 D3 domain protein (SEQ ID NO: 48); stacked histograms, axis without numbers, no control histogram
T18 construct: on CHO cells; the entry includes leader remnant, V5 tag and CD24 GPI anchor signal

[19] = biological target: T19, biotinylated BirA-tagged ILT2 protein tetramerised on APC-conjugated streptavidin (human, UniProt Q8NHL6 24-458, limits assumed, 1 biotin molecule per ILT2 protein (BirA tag)); test: flow cytometry blocking assay: ILT2-streptavidin-APC complexes pre-incubated with antibody, then added to K562 cells expressing HLA-G; blocked ligand HLA-G
T19 construct: ratio 1 streptavidin per 4 ILT2 protein; streptavidin-APC not written as a chain; also called ILT2-SA tetramers; recombinant biotinylated ILT2

[20] = biological target: T19, biotinylated BirA-tagged ILT2 protein …; test: flow cytometry blocking assay: ILT2-streptavidin-APC complexes pre-incubated with antibody, then added to WIL2-NS cells expressing HLA-A2; blocked ligand HLA-A2
[21] = biological target: T20, anchored ILT2 D1-D2 domain protein (human, UniProt Q8NHL6 24-222); test: flow cytometry, CHO cells with anchored ILT2 domain proteins
T20 construct: on CHO cells; the entry includes leader remnant, V5 tag and CD24 GPI anchor signal

[22] = biological target: T21, anchored ILT2 D1-D2-D3 domain protein (human, UniProt Q8NHL6 24-321); test: as above
T21 construct: on CHO cells; the entry includes leader remnant, V5 tag and CD24 GPI anchor signal

[23] = biological target: T9, human ILT2 (LILRB1) expressed at the …; test: flow cytometry titration on HEK293T cells transfected with wild-type ILT2; remark: listed apart in the source
ILT2 mutant 4-1 = biological target: T22, ILT2 mutant 4-1 (human, UniProt Q8NHL6 24-650); test: flow cytometry titration on HEK293T cells transfected with ILT2 mutant 4-1
T22 construct: transfected in HEK293T cells

ILT2 mutant 4-2 = biological target: T23, ILT2 mutant 4-2 (human, UniProt Q8NHL6 24-650); test: flow cytometry titration on HEK293T cells transfected with ILT2 mutant 4-2
T23 construct: transfected in HEK293T cells

Mutant D4-4 = biological target: T24, Mutant D4-4; test: flow cytometry titration on HEK293T cells transfected with ILT2 mutant 4-4
T24 construct: also called ILT2 mutant 4-4; mutant 4-4

ILT2 mutant 4-5 = biological target: T25, ILT2 mutant 4-5 (human, UniProt Q8NHL6 24-650); test: flow cytometry titration on HEK293T cells transfected with ILT2 mutant 4-5
T25 construct: transfected in HEK293T cells

Mutant D4-1B = biological target: T26, Mutant D4-1B; test: flow cytometry titration on HEK293T cells transfected with ILT2 mutant 4-1b
T26 construct: read as S304F; also called ILT2 mutant 4-1b; mutant 4-1b

[24] = biological target: T27, anchored ILT2 D1 domain protein (human); test: flow cytometry on CHO cells expressing the anchored ILT2 D1 domain protein (SEQ ID NO: 46); stacked histograms, axis without numbers
T27 construct: on CHO cells; the entry includes leader remnant, V5 tag and CD24 GPI anchor signal

[25] = biological target: T14, ILT-2_6xHis recombinant protein; test: SPR, antibody captured on Protein-A, soluble ILT2 analyte; two state fit
Description: as §1, with “Seven serial dilutions of human ILT2 proteins, ranging from 1.95 nM to 250 nM were sequentially injected over the captured antibodies and allowed to dissociate for 10 min before regeneration. The entire sensorgram sets were fitted using the 1:1 kinetic binding model or two state reaction model, as a function of the profile of the curves.” left out

T14 sequence (Q8NHL6 other isoform, or with tags, fused parts or gaps limits assumed): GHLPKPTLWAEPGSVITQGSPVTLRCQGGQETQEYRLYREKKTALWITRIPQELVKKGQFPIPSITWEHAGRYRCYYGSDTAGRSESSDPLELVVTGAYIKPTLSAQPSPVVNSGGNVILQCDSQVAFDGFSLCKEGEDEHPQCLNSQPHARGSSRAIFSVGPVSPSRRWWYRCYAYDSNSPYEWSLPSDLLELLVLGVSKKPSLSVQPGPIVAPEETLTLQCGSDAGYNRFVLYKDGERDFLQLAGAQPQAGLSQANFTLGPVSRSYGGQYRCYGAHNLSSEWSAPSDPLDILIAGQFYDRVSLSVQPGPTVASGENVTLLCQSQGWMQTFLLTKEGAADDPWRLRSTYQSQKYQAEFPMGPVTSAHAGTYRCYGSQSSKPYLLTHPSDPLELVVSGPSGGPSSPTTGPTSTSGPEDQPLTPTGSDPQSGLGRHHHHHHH
T1 sequence (Q8NHL6 24-650): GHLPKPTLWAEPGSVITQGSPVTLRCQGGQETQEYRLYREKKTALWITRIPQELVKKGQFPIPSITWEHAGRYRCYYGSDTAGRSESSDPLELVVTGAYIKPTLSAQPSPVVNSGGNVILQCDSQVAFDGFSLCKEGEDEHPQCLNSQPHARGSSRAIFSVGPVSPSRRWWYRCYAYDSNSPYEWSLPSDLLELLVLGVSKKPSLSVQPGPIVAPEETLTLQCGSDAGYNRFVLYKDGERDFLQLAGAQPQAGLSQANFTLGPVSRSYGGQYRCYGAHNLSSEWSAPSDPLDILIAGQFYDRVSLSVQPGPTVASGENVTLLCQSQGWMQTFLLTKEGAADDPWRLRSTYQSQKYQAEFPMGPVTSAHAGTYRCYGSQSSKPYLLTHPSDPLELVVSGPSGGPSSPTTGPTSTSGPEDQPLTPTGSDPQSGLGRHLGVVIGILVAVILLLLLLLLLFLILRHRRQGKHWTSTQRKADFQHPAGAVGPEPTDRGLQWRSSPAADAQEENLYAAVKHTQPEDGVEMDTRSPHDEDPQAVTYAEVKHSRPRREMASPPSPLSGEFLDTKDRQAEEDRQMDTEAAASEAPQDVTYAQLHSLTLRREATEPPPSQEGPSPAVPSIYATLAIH
T9 sequence (Q8NHL6 24-650): as above
T8 sequence (Q6PI73 other isoform, or with tags, fused parts or gaps): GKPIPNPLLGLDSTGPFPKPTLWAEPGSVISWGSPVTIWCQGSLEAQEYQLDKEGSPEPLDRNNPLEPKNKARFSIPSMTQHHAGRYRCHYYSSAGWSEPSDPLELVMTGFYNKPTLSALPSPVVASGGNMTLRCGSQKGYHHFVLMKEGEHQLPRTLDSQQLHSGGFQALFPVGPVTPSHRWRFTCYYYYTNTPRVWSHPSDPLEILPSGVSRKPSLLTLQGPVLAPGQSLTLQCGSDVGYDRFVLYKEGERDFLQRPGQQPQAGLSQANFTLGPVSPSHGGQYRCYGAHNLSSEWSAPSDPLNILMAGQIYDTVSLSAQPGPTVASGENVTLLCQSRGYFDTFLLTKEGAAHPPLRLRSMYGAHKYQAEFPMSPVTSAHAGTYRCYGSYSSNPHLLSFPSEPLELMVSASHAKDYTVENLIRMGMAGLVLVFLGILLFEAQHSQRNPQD
T2 sequence (Q8N149 other isoform, or with tags, fused parts or gaps): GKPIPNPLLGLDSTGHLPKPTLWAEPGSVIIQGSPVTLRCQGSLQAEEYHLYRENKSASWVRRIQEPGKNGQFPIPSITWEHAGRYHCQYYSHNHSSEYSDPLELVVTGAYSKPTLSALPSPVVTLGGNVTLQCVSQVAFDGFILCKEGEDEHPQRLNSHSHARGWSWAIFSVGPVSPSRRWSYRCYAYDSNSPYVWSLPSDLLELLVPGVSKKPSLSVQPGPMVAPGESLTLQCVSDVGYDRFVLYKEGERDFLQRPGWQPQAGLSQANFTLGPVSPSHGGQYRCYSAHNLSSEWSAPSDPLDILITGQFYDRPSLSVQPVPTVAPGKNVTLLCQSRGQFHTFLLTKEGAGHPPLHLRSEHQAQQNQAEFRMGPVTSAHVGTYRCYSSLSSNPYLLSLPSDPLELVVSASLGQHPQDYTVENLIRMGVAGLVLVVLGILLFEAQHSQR
T18 sequence (chain, as listed by the source limits assumed): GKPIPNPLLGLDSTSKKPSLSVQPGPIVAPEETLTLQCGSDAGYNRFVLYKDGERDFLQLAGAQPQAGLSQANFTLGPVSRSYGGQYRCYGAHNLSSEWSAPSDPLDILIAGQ
T10 sequence (chain, as listed by the source limits assumed): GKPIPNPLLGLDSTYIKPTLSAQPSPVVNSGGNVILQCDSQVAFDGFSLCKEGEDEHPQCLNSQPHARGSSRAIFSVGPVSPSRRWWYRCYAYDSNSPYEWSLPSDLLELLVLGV
T11 sequence (Q8NHL6 other isoform, or with tags, fused parts or gaps limits assumed): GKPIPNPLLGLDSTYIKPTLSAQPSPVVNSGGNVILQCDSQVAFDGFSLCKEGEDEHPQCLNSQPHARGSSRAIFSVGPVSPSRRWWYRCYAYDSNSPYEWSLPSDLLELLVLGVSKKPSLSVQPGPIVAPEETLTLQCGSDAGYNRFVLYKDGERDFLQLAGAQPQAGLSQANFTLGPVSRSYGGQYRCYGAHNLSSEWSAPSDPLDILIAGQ
T7 sequence (P59901 other isoform, or with tags, fused parts or gaps): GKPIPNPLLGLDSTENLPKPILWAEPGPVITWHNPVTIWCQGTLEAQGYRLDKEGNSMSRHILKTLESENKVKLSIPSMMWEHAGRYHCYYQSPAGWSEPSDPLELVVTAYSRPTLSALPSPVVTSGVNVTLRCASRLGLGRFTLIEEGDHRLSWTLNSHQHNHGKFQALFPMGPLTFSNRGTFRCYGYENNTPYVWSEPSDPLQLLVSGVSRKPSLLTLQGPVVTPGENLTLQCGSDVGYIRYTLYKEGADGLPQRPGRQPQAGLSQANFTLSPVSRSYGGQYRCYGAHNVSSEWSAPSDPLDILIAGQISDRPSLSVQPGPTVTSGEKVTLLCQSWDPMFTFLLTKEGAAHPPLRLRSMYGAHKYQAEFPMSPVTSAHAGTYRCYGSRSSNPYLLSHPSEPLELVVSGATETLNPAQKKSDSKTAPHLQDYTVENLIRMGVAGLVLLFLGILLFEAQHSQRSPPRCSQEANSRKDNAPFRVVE
T4 sequence (Q8N423 other isoform, or with tags, fused parts or gaps): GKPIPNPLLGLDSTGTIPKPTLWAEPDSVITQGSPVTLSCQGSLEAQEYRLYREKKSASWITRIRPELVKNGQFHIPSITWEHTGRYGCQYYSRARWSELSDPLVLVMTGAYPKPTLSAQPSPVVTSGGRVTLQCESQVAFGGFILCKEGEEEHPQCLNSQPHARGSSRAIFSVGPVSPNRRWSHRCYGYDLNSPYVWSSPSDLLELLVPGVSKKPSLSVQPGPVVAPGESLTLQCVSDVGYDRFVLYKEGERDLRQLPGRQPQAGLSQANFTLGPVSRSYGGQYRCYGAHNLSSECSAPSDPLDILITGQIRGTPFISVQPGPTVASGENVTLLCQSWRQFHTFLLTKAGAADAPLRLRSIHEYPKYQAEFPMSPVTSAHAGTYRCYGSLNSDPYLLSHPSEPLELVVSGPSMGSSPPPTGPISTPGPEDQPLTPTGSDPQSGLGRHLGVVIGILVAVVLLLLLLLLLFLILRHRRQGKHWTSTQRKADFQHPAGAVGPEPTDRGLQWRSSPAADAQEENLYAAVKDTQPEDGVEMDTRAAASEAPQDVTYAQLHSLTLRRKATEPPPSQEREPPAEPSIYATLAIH
T5 sequence (O75022 other isoform, or with tags, fused parts or gaps): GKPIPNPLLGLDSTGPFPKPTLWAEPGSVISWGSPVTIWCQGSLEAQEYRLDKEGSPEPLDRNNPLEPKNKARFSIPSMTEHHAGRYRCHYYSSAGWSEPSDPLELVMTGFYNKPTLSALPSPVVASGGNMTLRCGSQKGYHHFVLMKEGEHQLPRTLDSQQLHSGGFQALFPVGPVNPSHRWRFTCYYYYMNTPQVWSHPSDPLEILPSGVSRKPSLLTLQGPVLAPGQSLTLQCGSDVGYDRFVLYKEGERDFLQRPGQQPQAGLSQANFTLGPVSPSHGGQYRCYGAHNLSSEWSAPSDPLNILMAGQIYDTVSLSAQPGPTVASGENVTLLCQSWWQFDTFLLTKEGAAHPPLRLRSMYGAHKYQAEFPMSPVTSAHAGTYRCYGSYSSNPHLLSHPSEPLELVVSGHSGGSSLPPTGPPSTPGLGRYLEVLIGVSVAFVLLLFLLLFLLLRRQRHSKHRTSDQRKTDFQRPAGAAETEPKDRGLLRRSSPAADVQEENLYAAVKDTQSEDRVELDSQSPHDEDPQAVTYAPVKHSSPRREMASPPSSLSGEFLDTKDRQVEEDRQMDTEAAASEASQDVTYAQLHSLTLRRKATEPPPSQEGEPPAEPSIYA
T27 sequence (chain, as listed by the source limits assumed): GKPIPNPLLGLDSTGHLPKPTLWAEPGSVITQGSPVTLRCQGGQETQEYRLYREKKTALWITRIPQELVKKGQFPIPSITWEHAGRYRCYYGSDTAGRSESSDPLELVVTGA

| CD137 expression on ILT2-positive primary NK cells [1] | CD137 expression on NK cells of urothelial cancer patients with HLA-A2-expressing B cells [1] | binding result [2] | binding result [3] | binding result [4] | binding result [5] | binding result [6] | binding result [7] | binding result [8] | EC50 [9] | EC50 [10] | binding result [11] | binding result [12] | binding result [13] | binding result [14] | Kd [15] | koff [15] | binding result (ILT2 mutant 2) | EC50 (read off the curve) [16] | binding result [18] | Binder | further results |
| --- | --- | --- | --- | --- | --- | --- | --- | --- | --- | --- | --- | --- | --- | --- | --- | --- | --- | --- | --- | --- | --- |
| 2 fold | > 2 fold | no binding | no binding | no binding | no binding | no binding | no binding | no binding | 0.36 µg/mL | 0.09 µg/mL | no binding | no binding | no binding | no binding | 1 nM | 0.00042 s⁻¹ | no binding (tested: about 20 µg/ml) | ~0.5 µg/mL | no binding | 12D12 (antibody, human IgG1, V domains shown) VH: QVQLQQPGAELVKPGASVRMSCKASGYTFTSYWVHWVKQRPGQGLEWIGVIDPSDSYTSYNQNFKGKATLTVDTSSKTAYIHLSSLTSEDSAVYFCARGERYDGDYFAMDYWGQGTSVTVSS VL: DIVMTQSPASLSVSVGETVTITCRASENIYSNLAWYQQKQGKSPQLLVYAATNLADGVPSRFSGSRSGTQYSLKINSLQSEDFGTYYCQHFWNTPRTFGGGTKLEIK | kon [15]: 430000 M⁻¹ s⁻¹; EC50 (read off the curve) (ILT2 mutant 1): ~0.4 µg/mL; binding result [17]: no binding; IC50 (read off the curve) [19]: ~0.2 µg/mL; IC50 (read off the curve) [20]: ~0.1 µg/mL |
| 2 fold | > 2 fold | no binding | no binding | no binding | no binding | no binding | no binding | no binding | 0.12 µg/mL | 0.11 µg/mL | no binding | no binding |  |  | 0.2 nM | 0.00011 s⁻¹ |  |  | no binding | 18E1 (antibody, human IgG1, V domains shown) VH: QVQLQQSGAELVKPGASVRLSCKASGYTFTAHTIHWVKQRSGQGLEWIGWLYPGSGSIKYNEKFKDKATLTADKSSSTVYMELSRLTSEDSAVYFCARHTNWDFDYWGQGTTLTVSS VL: NIVLTQSPASLAVSLGQRATISCKASQSVDYGGASYMNWYQQKPGQPPKLLIYAASNLESGIPARFSGSGSGTDLTLNIHPVEEEDAAMYYCQQSNEEPWTFGGGTKLEIK | binding result [21]: no binding; binding result [22]: no binding; EC50 (read off the curve) [23]: ~0.3 µg/mL; binding result (ILT2 mutant 4-1): no binding (tested: about 20 µg/ml); binding result (ILT2 mutant 4-2): no binding (tested: about 20 µg/ml); binding result (Mutant D4-4): binds; binding result (ILT2 mutant 4-5): binds; binding result (Mutant D4-1B): binds; binding result [24]: no binding |
|  |  | no binding | no binding | no binding | no binding | no binding | no binding | no binding | 0.35 µg/mL | 0.48 µg/mL | no binding | no binding | no binding | no binding |  |  | no binding (tested: about 20 µg/ml) | ~0.9 µg/mL | no binding | 3H5 (antibody, human IgG1, V domains shown) VH: QVQLKESGPGLVAPSQSLSITCTVSGFSLTSYGVSWVRQPPGKGLEWLGVIWGDGSTNYHSALISRLSISKDNSKSQVFLKLNSLQTDDTATYYCAKPRWDDYAMDYWGQGTSVTVSS VL: DIQMTQTTSSLSASLGDRVTISCRASQDISNYLNWYQQKPDGTVKLLIYYTSRLHSGVPSRFSGSGSGTDYSLTISNLEQEDIATYFCQQGNTLWTFGGGTKLEIK | Kd [25]: 4.4 nM; binding result (ILT2 mutant 1): binds; binding result [17]: no binding |
